# Source: paper PMC9482650, “Quantitative fragmentomics allow affinity mapping of interactomes” (Nature Communications, 2022)
# T1: PTPN13_1, Q12923
# T1 sequence (Q12923 1088-1188, limits assumed, looked up): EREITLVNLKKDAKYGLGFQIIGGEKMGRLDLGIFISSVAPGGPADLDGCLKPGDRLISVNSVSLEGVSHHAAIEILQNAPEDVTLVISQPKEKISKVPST
# T2: ARHGAP21, Q5T5U3
# T2 sequence (Q5T5U3 45-169, limits assumed, looked up): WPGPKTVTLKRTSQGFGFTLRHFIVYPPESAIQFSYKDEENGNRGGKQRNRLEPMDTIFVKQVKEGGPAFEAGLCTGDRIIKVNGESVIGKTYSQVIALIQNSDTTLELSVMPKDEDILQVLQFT
# T3: PDZD7_3, Q9H5P4
# T3 sequence (Q9H5P4 857-944, limits assumed, looked up): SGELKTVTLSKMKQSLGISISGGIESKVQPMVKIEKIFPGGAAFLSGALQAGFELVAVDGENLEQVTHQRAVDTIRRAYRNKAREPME
# T4: HTRA4, P83105
# T4 sequence (P83105 378-476, limits assumed, looked up): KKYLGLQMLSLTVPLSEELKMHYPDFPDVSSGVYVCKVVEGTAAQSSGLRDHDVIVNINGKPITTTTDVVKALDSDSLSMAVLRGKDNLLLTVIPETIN
# T5: LIN7B, Q9HAP6
# T5 sequence (Q9HAP6 88-185, limits assumed, looked up): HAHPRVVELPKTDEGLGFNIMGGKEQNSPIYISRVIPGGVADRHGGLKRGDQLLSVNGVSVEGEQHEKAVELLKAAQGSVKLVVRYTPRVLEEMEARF
# T6: SIPA1L2, Q9P2F8
# T6 sequence (Q9P2F8 945-1036, limits assumed, looked up): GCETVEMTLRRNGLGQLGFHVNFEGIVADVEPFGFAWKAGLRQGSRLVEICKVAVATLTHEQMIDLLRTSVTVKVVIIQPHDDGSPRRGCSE
# T7: APBA2_2, Q99767
# T7 sequence (Q99767 654-744, limits assumed, looked up): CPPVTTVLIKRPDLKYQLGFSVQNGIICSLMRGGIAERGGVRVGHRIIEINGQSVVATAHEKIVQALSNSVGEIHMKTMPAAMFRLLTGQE
# T8: APBA1_2, Q02410
# T8 sequence (Q02410 742-832, limits assumed, looked up): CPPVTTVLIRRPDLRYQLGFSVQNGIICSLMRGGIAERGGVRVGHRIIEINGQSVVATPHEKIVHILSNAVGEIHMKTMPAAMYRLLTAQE
# T9: FRMPD1, Q5SYB0
# T9 sequence (Q5SYB0 52-145, limits assumed, looked up): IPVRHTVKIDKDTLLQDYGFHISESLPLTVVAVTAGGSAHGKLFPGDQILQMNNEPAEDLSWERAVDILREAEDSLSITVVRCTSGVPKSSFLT
# T10: APBA3_1, O96018
# T10 sequence (O96018 389-490, limits assumed, looked up): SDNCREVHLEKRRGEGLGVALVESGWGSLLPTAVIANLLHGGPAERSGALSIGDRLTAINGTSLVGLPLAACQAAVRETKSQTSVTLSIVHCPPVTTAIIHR
# T11: SYNJ2BP, P57105
# T11 sequence (P57105 8-110, limits assumed, looked up): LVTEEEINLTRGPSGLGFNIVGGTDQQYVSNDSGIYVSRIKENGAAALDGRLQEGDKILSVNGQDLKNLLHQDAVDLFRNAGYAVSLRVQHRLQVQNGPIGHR
# T12: MPDZ_10, O75970
# T12 sequence (O75970 1624-1722, limits assumed, looked up): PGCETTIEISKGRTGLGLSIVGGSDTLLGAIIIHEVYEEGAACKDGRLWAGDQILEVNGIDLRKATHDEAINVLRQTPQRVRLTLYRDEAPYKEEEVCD
# T13: NHERF3_4, Q5T2W1
# T13 sequence (Q5T2W1 373-468, limits assumed, looked up): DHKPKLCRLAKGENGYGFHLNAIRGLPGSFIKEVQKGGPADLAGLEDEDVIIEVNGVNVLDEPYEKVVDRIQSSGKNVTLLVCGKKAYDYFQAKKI
# Key:
# Test in all cases: holdup assay
# Design in all cases: key: below the threshold = too weak to quantify, mostly under pKd 3.1 to 4
# Settings in all cases: plain residues with an end cap or a label only (N-terminal biotin on a linker: ado-ado)
# [1] = target: GRASP, Q7Z6J2
# [2] = target: T1, PTPN13_1, Q12923
# [3] = target: DLG1_1, Q12959
# [4] = target: MAST2, Q6P0Q8
# [5] = target: T2, ARHGAP21, Q5T5U3
# [6] = target: T3, PDZD7_3, Q9H5P4
# [7] = target: GRIP2_3, Q9C0E4
# [8] = target: T4, HTRA4, P83105
# [9] = target: T5, LIN7B, Q9HAP6
# [10] = target: Inadl_2, Q8NI35
# [11] = target: T6, SIPA1L2, Q9P2F8
# [12] = target: SNX27, Q96L92
# [13] = target: MAGI2_4, Q86UL8
# [14] = target: T7, APBA2_2, Q99767
# [15] = target: GIPC2, Q8TF65
# [16] = target: T8, APBA1_2, Q02410
# [17] = target: T9, FRMPD1, Q5SYB0
# [18] = target: MAGI3_2, Q5TCQ9
# [19] = target: T10, APBA3_1, O96018
# [20] = target: TJP2_1, Q9UDY2
# [21] = target: T11, SYNJ2BP, P57105
# [22] = target: T12, MPDZ_10, O75970
# [23] = target: PDLIM1, O00151
# [24] = target: T13, NHERF3_4, Q5T2W1
# [25] = target: GRIP2_7, Q9C0E4
# Sequence of GRIP2_7, Q9C0E4 (Q9C0E4 934-1023): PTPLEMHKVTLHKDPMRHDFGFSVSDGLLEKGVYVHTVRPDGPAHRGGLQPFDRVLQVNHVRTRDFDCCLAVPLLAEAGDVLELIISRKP
# Sequence of TJP2_1, Q9UDY2 (Q9UDY2 24-128): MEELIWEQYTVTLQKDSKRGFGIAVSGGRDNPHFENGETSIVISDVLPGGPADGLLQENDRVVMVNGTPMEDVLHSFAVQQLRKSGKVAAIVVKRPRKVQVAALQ
# Sequence of MAGI2_4, Q86UL8 (Q86UL8 772-865): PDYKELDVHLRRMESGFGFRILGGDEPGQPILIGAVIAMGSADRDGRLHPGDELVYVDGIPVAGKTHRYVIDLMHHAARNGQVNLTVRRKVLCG
# Sequence of GRASP, Q7Z6J2 (Q7Z6J2 96-193): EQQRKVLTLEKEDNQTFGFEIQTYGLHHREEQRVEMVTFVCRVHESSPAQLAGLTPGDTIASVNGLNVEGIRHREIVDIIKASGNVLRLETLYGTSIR
# Sequence of GRIP2_3, Q9C0E4 (Q9C0E4 238-339): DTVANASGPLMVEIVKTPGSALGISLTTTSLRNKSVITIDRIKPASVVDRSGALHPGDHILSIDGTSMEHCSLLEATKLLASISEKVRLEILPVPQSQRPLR
# Sequence of MAGI3_2, Q5TCQ9 (Q5TCQ9 398-503): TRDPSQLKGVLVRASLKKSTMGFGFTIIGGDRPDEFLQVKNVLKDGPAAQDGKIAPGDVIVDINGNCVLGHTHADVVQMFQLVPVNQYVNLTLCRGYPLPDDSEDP
# Sequence of GIPC2, Q8TF65 (Q8TF65 112-203): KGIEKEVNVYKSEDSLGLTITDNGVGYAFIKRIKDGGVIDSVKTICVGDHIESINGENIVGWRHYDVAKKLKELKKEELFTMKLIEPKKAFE
# Sequence of MAST2, Q6P0Q8 (Q6P0Q8 1099-1202): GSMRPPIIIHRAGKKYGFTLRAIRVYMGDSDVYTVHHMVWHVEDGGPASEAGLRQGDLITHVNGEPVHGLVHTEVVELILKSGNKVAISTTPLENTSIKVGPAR
# Sequence of Inadl_2, Q8NI35 (Q8NI35 238-335): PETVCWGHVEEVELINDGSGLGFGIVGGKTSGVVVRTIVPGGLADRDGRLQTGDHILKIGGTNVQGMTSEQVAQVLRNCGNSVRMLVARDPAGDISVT
# Sequence of PDLIM1, O00151 (O00151 1-87): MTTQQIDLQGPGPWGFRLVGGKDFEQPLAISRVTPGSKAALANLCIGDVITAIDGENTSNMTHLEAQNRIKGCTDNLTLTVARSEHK
pKd [1],pKd [2],pKd [3],pKd [4],pKd [5],pKd [6],pKd [7],pKd [8],pKd [9],pKd [10],pKd [11],pKd [12],pKd [13],pKd [14],pKd [15],pKd [16],pKd [17],pKd [18],pKd [19],pKd [20],Binder,other results
below the threshold,below the threshold,3.62,4.27,3.84,below the threshold,below the threshold,below the threshold,below the threshold,below the threshold,below the threshold,4.43,below the threshold,below the threshold,below the threshold,below the threshold,below the threshold,3.54,below the threshold,below the threshold,"PGKKPEDSRV [SLCO2B1, O94956]",pKd [21]: 4.15; pKd [22]: below the threshold; pKd [23]: below the threshold; pKd [24]: below the threshold; pKd [25]: below the threshold
below the threshold,below the threshold,4.42,5.52,4.05,5.51,below the threshold,below the threshold,3.74,below the threshold,below the threshold,5.5,3.72,below the threshold,3.68,3.55,below the threshold,4.87,below the threshold,below the threshold,"TKDKVQETQI [LRRC4, Q9HBW1]",pKd [21]: 4.75; pKd [22]: below the threshold; pKd [23]: below the threshold; pKd [24]: 3.57; pKd [25]: below the threshold
below the threshold,below the threshold,below the threshold,below the threshold,below the threshold,3.52,below the threshold,3.67,3.69,below the threshold,below the threshold,below the threshold,below the threshold,below the threshold,below the threshold,below the threshold,below the threshold,below the threshold,below the threshold,below the threshold,"MLPANYVEAI [NEB, P20929]",pKd [21]: below the threshold; pKd [22]: below the threshold; pKd [23]: below the threshold; pKd [24]: below the threshold; pKd [25]: below the threshold

# Second part, the binder before the results:
Binder,pKd [1],pKd [2],pKd [3],pKd [4],pKd [5],pKd [6],pKd [7],pKd [8],pKd [9],pKd [10],pKd [11],pKd [12],pKd [13],pKd [14],pKd [15],pKd [16],pKd [17],pKd [18],pKd [19],pKd [20],other results
"NISARRFTLC [FAM167B, Q9BTA0]",4.36,below the threshold,4.31,4.89,below the threshold,3.88,below the threshold,4.55,4.08,below the threshold,3.73,below the threshold,3.63,below the threshold,below the threshold,below the threshold,below the threshold,4.67,below the threshold,4.76,pKd [21]: 3.75; pKd [22]: below the threshold; pKd [23]: below the threshold; pKd [24]: below the threshold; pKd [25]: 3.81
"ADEMICITTL [CACNA1D, Q01668]",5.41,below the threshold,3.91,5.76,3.67,5.57,below the threshold,4.36,3.95,below the threshold,below the threshold,5.51,below the threshold,below the threshold,below the threshold,4.01,below the threshold,below the threshold,below the threshold,below the threshold,pKd [21]: 4.24; pKd [22]: below the threshold; pKd [23]: below the threshold; pKd [24]: 4.19; pKd [25]: 3.62
"LVEEEEPMNL [HDAC7, Q8WUI4]",below the threshold,below the threshold,below the threshold,4.08,3.77,below the threshold,below the threshold,3.94,below the threshold,below the threshold,below the threshold,below the threshold,below the threshold,below the threshold,below the threshold,below the threshold,below the threshold,below the threshold,below the threshold,below the threshold,pKd [21]: below the threshold; pKd [22]: below the threshold; pKd [23]: below the threshold; pKd [24]: below the threshold; pKd [25]: below the threshold
